Numbering of substitutions follows the chain as printed. Numbers in names are those of the source.
B1: DesAb-Aβ(3–9) (antibody, V domains shown)
VH: EVQLVESGGGLVQPGGSLRLSCAASGFNIKDTYIGWVRRAPGKGKEWVASIYPTNGYTRYADSVKGRFTISADTSKNTAYLQMNSLRAEDTAVYYCAAGSHETLTLREEEAAAWGQGTLVTVSS
notes: single-domain antibody on a human VH scaffold with the in-silico-designed CDR3 loop HETLTLR and a thermally stabilizing mutation; No cleavage of the tag is told; also called the starting construct; starting single-domain antibody; source: E. coli BL21 (DE3)-Gold, pRSET-B vector, purified (Ni-NTA, SEC); not shown: His6, N-terminal, kept
B2: DesAb-Aβ(3–9) (T138captamine) (antibody, V domains shown)
VH: B1 VH with T103C
modifications: position 138: non-canonical side chain, captamine (2-(dimethylamino)ethanethiol) added to dehydroalanine (Dha) by thiol-Michael addition; epimeric mixture of D and L side chains
notes: T138 is replaced through T138C and Dha by the captamine adduct; The new residue at 138 is written as C because the thiol adduct of Dha is an S-alkylated cysteine (S-(2-dimethylaminoethyl)cysteine); also called the captamine mutant; not shown: His6, N-terminal, kept

Target: T1, Beta - Amyloid (1 - 42) - Lys(Biotin) - NH2, Human (human, UniProt P05067 672-713, Lys(Biotin) added at the C-terminus; C-terminal amide (NH2))
T1 construct: amyloid-beta peptide (1-42), human, cut product of the amyloid precursor protein; numbers count on: the Aβ peptide; added C-terminal lysine that carries the biotin, amidated; Held on streptavidin biosensors by the C-terminal biotin; also called monomeric C-terminally biotinylated Aβ42; C-terminally immobilized monomeric Aβ42; source: bought: Anaspec
Test: BLI; C-terminally biotinylated monomeric Aβ42 (5 μg/ml) on streptavidin biosensors; antibodies at 20 μM in PBS + 0.1% BSA + 0.02% TWEEN 20, 30°C; association 900 s, dissociation 1200 s; signal of biocytin-coated sensors subtracted
Details: both partners purified

T1 sequence (P05067 other isoform, or with tags, fused parts or gaps): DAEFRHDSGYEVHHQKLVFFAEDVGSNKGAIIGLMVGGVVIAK

Binder | binding result
B1 | binds
B2 | binds

From article PMC7837213, “Systematic Activity Maturation of a Single-Domain Antibody with Non-canonical Amino Acids through Chemical Mutagenesis” (Cell Chemical Biology, 2021)
